Reference: the Human Domainome abundance scans (Beltran et al. 2025)
± gives the uncertainty stated by the source.

B1: Gamma-crystallin C, residues 4 to 79; numbered along this chain, P07315 (parent)
chain: ITFYEDRAFQGRSYETTTDCPNLQPYFSRCNSIRVESGCWMLYERPNYQGQQYLLRRGEYPDYQQWMGLSDSIRSC

Variants of: B1
Experiment: abundance fitness (aPCA) (normalised: wild type 0, dead -1); higher = more abundant; growth selection in yeast, the domain comes from the species named
Conditions: Homo sapiens

Variant | abundance fitness
ITFYEDRAFQGRSYETTTDCPNLQPYFSRCNSIRVESGCWMLYERPNYQGQQYLLRRGEYPDYQQWMGLSDSIRKC [S75K] | -0.59 ± 0.19
ITFYEDRAFQGRSYETTTDCPNLQPYFSRCNSIRVESGCWMLYERPNYQGQQYLLRRGEYPDYQQWMGLSDSIRVC [S75V] | -0.226 ± 0.053
ITFYEDRAFQGRSYETTTDCPNLQPYFSRCNSIRVESGCWMLYERPNYQGQQYLLRRGEYPDYQQWMGLSDSIRTC [S75T] | -0.828 ± 0.17
ITFYEDRAFQGRSYETTTDCPNLQPYFSRCNSIRVESGCWMLYERPNYQGQQYLLRRGEYPDYQQWMGLSDSIREC [S75E] | -0.793 ± 0.27
ITFYEDRAFQGRSYETTTDCPNLQPYFSRCNSIRVESGCWMLYERPNYQGQQYLLRRGEYPDYQQWMGLSDSIRQC [S75Q] | -0.327 ± 0.21
ITFYEDRAFQGRSYETTTDCPNLQPYFSRCNSIRVESGCWMLYERPNYQGQQYLLRRGEYPDYQQWMGLSDSIRAC [S75A] | -0.054 ± 0.093
ITFYEDRAFQGRSYETTTDCPNLQPYFSRCNSIRVESGCWMLYERPNYQGQQYLLRRGEYPDYQQWMGLSDSIRLC [S75L] | 0.044 ± 0.068
ITFYEDRAFQGRSYETTTDCPNLQPYFSRCNSIRVESGCWMLYERPNYQGQQYLLRRGEYPDYQQWMGLSDSIRSG [C76G] | 0.116 ± 0.065
ITFYEDRAFQGRSYETTTDCPNLQPYFSRCNSIRVESGCWMLYERPNYQGQQYLLRRGEYPDYQQWMGLSDSIRSQ [C76Q] | -0.592 ± 0.15
ITFYEDRAFQGRSYETTTDCPNLQPYFSRCNSIRVESGCWMLYERPNYQGQQYLLRRGEYPDYQQWMGLSDSIRSD [C76D] | -0.834 ± 0.13
ITFYEDRAFQGRSYETTTDCPNLQPYFSRCNSIRVESGCWMLYERPNYQGQQYLLRRGEYPDYQQWMGLSDSIRSF [C76F] | -0.539 ± 0.086
ITFYEDRAFQGRSYETTTDCPNLQPYFSRCNSIRVESGCWMLYERPNYQGQQYLLRRGEYPDYQQWMGLSDSIRSA [C76A] | 0.056 ± 0.078
ITFYEDRAFQGRSYETTTDCPNLQPYFSRCNSIRVESGCWMLYERPNYQGQQYLLRRGEYPDYQQWMGLSDSIRSH [C76H] | -0.574 ± 0.092
ITFYEDRAFQGRSYETTTDCPNLQPYFSRCNSIRVESGCWMLYERPNYQGQQYLLRRGEYPDYQQWMGLSDSIRSV [C76V] | 0.061 ± 0.073
ITFYEDRAFQGRSYETTTDCPNLQPYFSRCNSIRVESGCWMLYERPNYQGQQYLLRRGEYPDYQQWMGLSDSIRSI [C76I] | 0.074 ± 0.083
ITFYEDRAFQGRSYETTTDCPNLQPYFSRCNSIRVESGCWMLYERPNYQGQQYLLRRGEYPDYQQWMGLSDSIRSR [C76R] | -0.904 ± 0.25
ITFYEDRAFQGRSYETTTDCPNLQPYFSRCNSIRVESGCWMLYERPNYQGQQYLLRRGEYPDYQQWMGLSDSIRSM [C76M] | -0.192 ± 0.14
ITFYEDRAFQGRSYETTTDCPNLQPYFSRCNSIRVESGCWMLYERPNYQGQQYLLRRGEYPDYQQWMGLSDSIRSS [C76S] | 0.051 ± 0.063
ITFYEDRAFQGRSYETTTDCPNLQPYFSRCNSIRVESGCWMLYERPNYQGQQYLLRRGEYPDYQQWMGLSDSIRSE [C76E] | -0.795 ± 0.32
ITFYEDRAFQGRSYETTTDCPNLQPYFSRCNSIRVESGCWMLYERPNYQGQQYLLRRGEYPDYQQWMGLSDSIRSW [C76W] | -0.545 ± 0.22

Variant | abundance fitness
ITFYEDRAFQGRSYETTTDCPNLQPYFSRCNSIRVESGCWMLYERPNYQGQQYLLRRGEYPDYQQWMGLSDSIRSP [C76P] | -0.984 ± 0.18
ITFYEDRAFQGRSYETTTDCPNLQPYFSRCNSIRVESGCWMLYERPNYQGQQYLLRRGEYPDYQQWMGLSDSIRSY [C76Y] | -0.719 ± 0.13
ITFYEDRAFQGRSYETTTDCPNLQPYFSRCNSIRVESGCWMLYERPNYQGQQYLLRRGEYPDYQQWMGLSDSIRST [C76T] | -0.002 ± 0.15
ITFYEDRAFQGRSYETTTDCPNLQPYFSRCNSIRVESGCWMLYERPNYQGQQYLLRRGEYPDYQQWMGLSDSIDSC [R74D] | 0.104 ± 0.15
ITFYEDRAFQGRSYETTTDCPNLQPYFSRCNSIRVESGCWMLYERPNYQGQQYLLRRGEYPDYQQWMGLSDSICSC [R74C] | 0.037 ± 0.088
ITFYEDRAFQGRSYETTTDCPNLQPYFSRCNSIRVESGCWMLYERPNYQGQQYLLRRGEYPDYQQWMGLSDSINSC [R74N] | 0.107 ± 0.14
ITFYEDRAFQGRSYETTTDCPNLQPYFSRCNSIRVESGCWMLYERPNYQGQQYLLRRGEYPDYQQWMGLSDSIQSC [R74Q] | -0.001 ± 0.1
ITFYEDRAFQGRSYETTTDCPNLQPYFSRCNSIRVESGCWMLYERPNYQGQQYLLRRGEYPDYQQWMGLSDSIISC [R74I] | 0.02 ± 0.076
ITFYEDRAFQGRSYETTTDCPNLQPYFSRCNSIRVESGCWMLYERPNYQGQQYLLRRGEYPDYQQWMGLSDSIVSC [R74V] | 0.108 ± 0.053
ITFYEDRAFQGRSYETTTDCPNLQPYFSRCNSIRVESGCWMLYERPNYQGQQYLLRRGEYPDYQQWMGLSDSIPSC [R74P] | -0.389 ± 0.099
ITFYEDRAFQGRSYETTTDCPNLQPYFSRCNSIRVESGCWMLYERPNYQGQQYLLRRGEYPDYQQWMGLSDSIWSC [R74W] | 0.119 ± 0.059
ITFYEDRAFQGRSYETTTDCPNLQPYFSRCNSIRVESGCWMLYERPNYQGQQYLLRRGEYPDYQQWMGLSDSIMSC [R74M] | 0.007 ± 0.082
ITFYEDRAFQGRSYETTTDCPNLQPYFSRCNSIRVESGCWMLYERPNYQGQQYLLRRGEYPDYQQWMGLSDSIKSC [R74K] | -0.013 ± 0.12
ITFYEDRAFQGRSYETTTDCPNLQPYFSRCNSIRVESGCWMLYERPNYQGQQYLLRRGEYPDYQQWMGLSDSIGSC [R74G] | 0.022 ± 0.044
ITFYEDRAFQGRSYETTTDCPNLQPYFSRCNSIRVESGCWMLYERPNYQGQQYLLRRGEYPDYQQWMGLSDSILSC [R74L] | 0.023 ± 0.049
ITFYEDRAFQGRSYETTTDCPNLQPYFSRCNSIRVESGCWMLYERPNYQGQQYLLRRGEYPDYQQWMGLSDSIASC [R74A] | 0.039 ± 0.05
ITFYEDRAFQGRSYETTTDCPNLQPYFSRCNSIRVESGCWMLYERPNYQGQQYLLRRGEYPDYQQWMGLSDSIESC [R74E] | -0.021 ± 0.066
ITFYEDRAFQGRSYETTTDCPNLQPYFSRCNSIRVESGCWMLYERPNYQGQQYLLRRGEYPDYQQWMGLSDSIYSC [R74Y] | 0.105 ± 0.14
ITFYEDRAFQGRSYETTTDCPNLQPYFSRCNSIRVESGCWMLYERPNYQGQQYLLRRGEYPDYQQWMGLSDSIHSC [R74H] | -0.001 ± 0.11
ITFYEDRAFQGRSYETTTDCPNLQPYFSRCNSIRVESGCWMLYERPNYQGQQYLLRRGEYPDYQQWMGLSDSITSC [R74T] | 0.12 ± 0.082
